# Source: patent US20080008707A1, “Denatured collagen peptides and uses thereof” (Cell-Matrix, Inc., priority 2006, published 2008)
# Legend:
# [1] = target: biotinylated synthetic collagen peptide α1(IV) P1337-Y1352 (human); experiment: SPR, medium density biotinylated peptide surface on streptavidin, avidity model, CLAMP
# [2] = target: biotinylated synthetic collagen peptide α1(IV) P1337-Y1352 (human); experiment: SPR, high density biotinylated peptide surface on streptavidin, avidity model (second binding step), CLAMP
# [3] = target: biotinylated synthetic collagen peptide α1(IV) P1337-Y1352 (human); experiment: SPR (Biacore), medium density biotinylated peptide on streptavidin chip, monomeric D93 Fab
# [4] = target: human heat-denatured collagen type IV (human); experiment: SPR, medium density denatured collagen IV surface, avidity model, CLAMP
# [5] = target: human heat-denatured collagen type IV (human); experiment: SPR, high density denatured collagen IV surface, avidity model (second binding step), CLAMP
# [6] = target: biotinylated synthetic collagen peptide α1(IV) P1337-Y1352 (human); experiment: SPR, high density biotinylated peptide surface on streptavidin, avidity model, CLAMP
# [7] = target: human heat-denatured collagen type IV (human); experiment: SPR (Biacore), high density dn-collagen on CM5 chip, monomeric (one Fab region) binding
# [8] = target: biotinylated synthetic collagen peptide α1(IV) P1337-Y1352 (human); experiment: SPR, low density biotinylated peptide surface on streptavidin, simple 1:1 interaction model, CLAMP
# [9] = target: human heat-denatured collagen type IV (human); experiment: SPR (Biacore), medium density dn-collagen on CM5 chip, monomeric (one Fab region) binding
# [10] = target: biotinylated synthetic collagen peptide α1(IV) P1337-Y1352 (human); experiment: SPR (Biacore), low density biotinylated peptide on streptavidin chip, monomeric D93 Fab
# [11] = target: biotinylated synthetic collagen peptide α1(IV) P1337-Y1352 (human); experiment: SPR, medium density biotinylated peptide surface on streptavidin, avidity model (second binding step), CLAMP
# [12] = target: biotinylated synthetic collagen peptide α1(IV) P1337-Y1352 (human); experiment: SPR (Biacore), high density biotinylated peptide on streptavidin chip, monomeric D93 Fab
# [13] = target: dn-collagen or synthetic peptide (sensor chips with a low or medium density); experiment: SPR (Biacore), bivalent antibody binding, avidity model
# [14] = target: human heat-denatured collagen type IV (human); experiment: SPR, medium density denatured collagen IV surface, avidity model (second binding step), CLAMP
# [15] = target: human heat-denatured collagen type IV (human); experiment: SPR, high density denatured collagen IV surface, avidity model, CLAMP
# [16] = target: human heat-denatured collagen type IV (human); experiment: SPR, low density denatured collagen IV surface, avidity model (second binding step), CLAMP
# [17] = target: human heat-denatured collagen type IV (human); experiment: SPR (Biacore), low density dn-collagen on CM5 chip, monomeric (one Fab region) binding
# [18] = target: human heat-denatured collagen type IV (human); experiment: SPR, low density denatured collagen IV surface, avidity model, CLAMP
# [19] = target: human heat-denatured collagen type IV (human); experiment: ELISA, wells coated with human heat-denatured collagen IV, anti-mouse IgM-HRP, read at 450 nm
# [20] = target: denatured collagen type-I (human) (UniProt P02452); experiment: cell-based or functional assay
# [21] = target: denatured collagen V; experiment: ELISA (data not shown)
# [22] = target: denatured collagen III; experiment: ELISA (data not shown)
# [23] = target: human heat-denatured collagen type IV (human); experiment: ELISA (data not shown)
# [24] = target: denatured collagen type-I (human) (UniProt P02452); experiment: ELISA
# [25] = target: human heat-denatured collagen type IV (human); experiment: ELISA
# Sequence of UniProt P02452 (P02452 21-1464 V1081A/Q1391K, chain 1 of 2): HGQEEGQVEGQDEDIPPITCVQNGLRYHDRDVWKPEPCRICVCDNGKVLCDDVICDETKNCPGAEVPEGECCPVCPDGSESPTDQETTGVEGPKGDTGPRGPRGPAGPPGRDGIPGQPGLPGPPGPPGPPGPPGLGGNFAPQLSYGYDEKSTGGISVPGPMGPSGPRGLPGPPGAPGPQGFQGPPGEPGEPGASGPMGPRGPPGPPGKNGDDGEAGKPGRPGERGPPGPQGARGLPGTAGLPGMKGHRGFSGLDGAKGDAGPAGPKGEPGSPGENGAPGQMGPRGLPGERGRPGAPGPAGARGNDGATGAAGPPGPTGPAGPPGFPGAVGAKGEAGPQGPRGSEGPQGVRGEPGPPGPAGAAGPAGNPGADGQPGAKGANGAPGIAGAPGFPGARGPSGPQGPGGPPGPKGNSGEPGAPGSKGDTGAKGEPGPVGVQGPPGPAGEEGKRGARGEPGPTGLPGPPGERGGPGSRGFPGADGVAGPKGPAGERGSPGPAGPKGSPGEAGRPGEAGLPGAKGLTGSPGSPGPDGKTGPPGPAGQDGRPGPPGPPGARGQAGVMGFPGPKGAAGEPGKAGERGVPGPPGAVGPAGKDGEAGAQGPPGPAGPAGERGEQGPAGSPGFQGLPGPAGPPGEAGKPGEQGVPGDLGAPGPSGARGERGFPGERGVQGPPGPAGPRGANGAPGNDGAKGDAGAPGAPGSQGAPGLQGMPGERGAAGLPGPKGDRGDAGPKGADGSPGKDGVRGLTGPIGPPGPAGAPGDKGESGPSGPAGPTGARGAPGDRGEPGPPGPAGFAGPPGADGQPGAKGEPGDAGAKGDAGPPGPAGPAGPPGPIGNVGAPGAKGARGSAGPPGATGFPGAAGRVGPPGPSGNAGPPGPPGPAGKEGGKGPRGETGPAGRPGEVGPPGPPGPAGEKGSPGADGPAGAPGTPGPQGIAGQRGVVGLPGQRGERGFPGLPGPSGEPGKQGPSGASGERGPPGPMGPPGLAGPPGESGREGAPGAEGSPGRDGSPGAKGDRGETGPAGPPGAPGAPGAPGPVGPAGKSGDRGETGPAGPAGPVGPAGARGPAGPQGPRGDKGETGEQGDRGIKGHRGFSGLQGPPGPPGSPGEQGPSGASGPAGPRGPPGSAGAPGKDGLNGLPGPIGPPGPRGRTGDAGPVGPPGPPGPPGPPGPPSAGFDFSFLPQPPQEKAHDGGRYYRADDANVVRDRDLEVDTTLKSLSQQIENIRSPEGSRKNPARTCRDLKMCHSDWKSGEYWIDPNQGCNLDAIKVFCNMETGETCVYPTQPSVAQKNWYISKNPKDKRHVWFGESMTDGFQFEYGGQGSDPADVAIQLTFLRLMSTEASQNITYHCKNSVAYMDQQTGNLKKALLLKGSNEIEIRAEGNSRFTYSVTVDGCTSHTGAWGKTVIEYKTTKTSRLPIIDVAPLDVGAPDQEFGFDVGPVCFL
# Sequence of UniProt P02452 (P02452 other isoform, or with tags, fused parts or gaps, chain 2 of 2): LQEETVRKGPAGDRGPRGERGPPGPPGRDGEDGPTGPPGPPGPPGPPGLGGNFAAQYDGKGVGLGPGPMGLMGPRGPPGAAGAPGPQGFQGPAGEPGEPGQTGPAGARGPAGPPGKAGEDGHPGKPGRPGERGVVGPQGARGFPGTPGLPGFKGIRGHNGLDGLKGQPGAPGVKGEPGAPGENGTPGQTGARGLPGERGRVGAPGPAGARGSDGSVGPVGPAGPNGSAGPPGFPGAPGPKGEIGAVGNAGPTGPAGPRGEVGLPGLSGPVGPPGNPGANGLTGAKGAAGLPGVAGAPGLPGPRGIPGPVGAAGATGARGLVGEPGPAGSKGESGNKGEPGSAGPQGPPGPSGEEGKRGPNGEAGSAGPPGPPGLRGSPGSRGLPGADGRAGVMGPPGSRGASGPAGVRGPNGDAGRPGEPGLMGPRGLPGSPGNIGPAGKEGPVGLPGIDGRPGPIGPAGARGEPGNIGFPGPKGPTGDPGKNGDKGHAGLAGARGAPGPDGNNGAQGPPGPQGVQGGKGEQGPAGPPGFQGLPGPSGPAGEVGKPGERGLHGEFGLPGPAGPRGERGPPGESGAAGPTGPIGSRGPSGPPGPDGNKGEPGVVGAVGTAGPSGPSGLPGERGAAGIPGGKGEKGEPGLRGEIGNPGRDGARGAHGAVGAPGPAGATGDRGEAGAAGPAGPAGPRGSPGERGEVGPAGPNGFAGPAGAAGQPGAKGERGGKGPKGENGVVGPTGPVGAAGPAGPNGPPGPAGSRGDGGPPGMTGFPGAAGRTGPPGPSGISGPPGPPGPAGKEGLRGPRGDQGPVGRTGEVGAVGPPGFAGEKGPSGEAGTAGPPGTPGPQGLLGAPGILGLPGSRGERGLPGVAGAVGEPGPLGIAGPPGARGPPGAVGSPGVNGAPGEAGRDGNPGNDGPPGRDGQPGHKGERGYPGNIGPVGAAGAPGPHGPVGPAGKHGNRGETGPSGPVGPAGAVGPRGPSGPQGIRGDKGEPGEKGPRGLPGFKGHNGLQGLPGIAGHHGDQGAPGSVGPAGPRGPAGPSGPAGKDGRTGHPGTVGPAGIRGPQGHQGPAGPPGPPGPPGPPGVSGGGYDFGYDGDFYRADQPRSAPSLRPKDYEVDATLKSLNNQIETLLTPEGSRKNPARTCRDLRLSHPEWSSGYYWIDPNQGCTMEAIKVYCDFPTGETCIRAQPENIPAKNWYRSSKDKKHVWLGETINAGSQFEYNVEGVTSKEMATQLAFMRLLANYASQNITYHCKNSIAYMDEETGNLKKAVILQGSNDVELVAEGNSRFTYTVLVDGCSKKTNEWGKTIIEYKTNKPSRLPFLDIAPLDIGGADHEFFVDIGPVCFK
# Sequence of human heat-denatured collagen type IV (human) (P08572 other isoform, or with tags, fused parts or gaps): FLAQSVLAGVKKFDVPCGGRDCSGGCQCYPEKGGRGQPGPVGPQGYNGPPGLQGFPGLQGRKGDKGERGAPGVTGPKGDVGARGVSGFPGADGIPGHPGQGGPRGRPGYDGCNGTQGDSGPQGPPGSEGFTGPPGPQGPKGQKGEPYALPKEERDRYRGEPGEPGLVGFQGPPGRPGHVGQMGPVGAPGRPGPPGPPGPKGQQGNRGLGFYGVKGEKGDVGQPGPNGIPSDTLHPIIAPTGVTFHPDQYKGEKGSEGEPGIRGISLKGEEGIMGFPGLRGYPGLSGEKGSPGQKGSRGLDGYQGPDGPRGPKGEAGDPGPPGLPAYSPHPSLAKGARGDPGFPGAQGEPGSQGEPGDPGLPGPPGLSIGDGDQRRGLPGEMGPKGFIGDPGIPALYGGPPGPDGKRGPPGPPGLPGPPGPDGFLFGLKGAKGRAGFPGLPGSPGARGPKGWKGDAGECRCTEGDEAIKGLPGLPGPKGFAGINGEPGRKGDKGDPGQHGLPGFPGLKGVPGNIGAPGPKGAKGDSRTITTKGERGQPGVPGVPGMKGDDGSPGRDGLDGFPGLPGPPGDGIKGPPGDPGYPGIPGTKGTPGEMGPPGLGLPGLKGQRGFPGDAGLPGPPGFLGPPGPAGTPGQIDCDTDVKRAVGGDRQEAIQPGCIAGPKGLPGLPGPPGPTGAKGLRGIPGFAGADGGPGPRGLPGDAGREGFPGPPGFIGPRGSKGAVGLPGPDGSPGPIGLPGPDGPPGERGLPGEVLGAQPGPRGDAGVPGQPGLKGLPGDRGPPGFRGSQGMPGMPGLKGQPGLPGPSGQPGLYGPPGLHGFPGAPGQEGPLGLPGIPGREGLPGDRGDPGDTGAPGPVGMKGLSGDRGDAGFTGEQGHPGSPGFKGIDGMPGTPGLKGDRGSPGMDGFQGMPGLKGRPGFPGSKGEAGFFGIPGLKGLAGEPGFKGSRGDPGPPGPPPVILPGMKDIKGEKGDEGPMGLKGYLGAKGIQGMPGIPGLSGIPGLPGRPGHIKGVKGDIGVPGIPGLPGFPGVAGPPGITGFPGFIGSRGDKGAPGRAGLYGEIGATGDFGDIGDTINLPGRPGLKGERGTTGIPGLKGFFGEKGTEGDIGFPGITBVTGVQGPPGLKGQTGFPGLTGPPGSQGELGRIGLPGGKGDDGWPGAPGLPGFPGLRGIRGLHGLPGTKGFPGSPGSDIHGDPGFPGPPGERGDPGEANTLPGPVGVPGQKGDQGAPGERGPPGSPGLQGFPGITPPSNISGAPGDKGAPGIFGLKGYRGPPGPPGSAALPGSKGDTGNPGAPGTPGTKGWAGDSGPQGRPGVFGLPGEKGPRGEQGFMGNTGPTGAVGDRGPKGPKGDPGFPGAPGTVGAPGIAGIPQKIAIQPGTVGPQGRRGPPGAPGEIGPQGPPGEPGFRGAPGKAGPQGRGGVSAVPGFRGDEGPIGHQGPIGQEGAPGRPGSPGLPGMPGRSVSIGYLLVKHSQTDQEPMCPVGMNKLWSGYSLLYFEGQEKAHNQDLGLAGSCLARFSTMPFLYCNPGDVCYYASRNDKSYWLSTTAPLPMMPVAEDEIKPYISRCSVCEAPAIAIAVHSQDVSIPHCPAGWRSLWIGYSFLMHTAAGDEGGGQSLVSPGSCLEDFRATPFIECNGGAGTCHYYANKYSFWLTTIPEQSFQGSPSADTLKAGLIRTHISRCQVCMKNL
substance,measurement,setting,value
"D93, recombinant humanized IgG1 kappa antibody targeting denatured-collagen",koff,[1],0.1 s⁻¹
same,kon,[1],57800 M⁻¹ s⁻¹
same,ka2,[2],6.6e-06 RU s-1
same,kd2,[2],0.014 s⁻¹
same,Kd,[3],1700 nM
same,koff,[4],0.21 s⁻¹
same,kon,[4],26800 M⁻¹ s⁻¹
same,ka2,[5],4.3e-06 RU s-1
same,kd2,[5],0.0024 s⁻¹
same,koff,[6],0.057 s⁻¹
same,kon,[6],41900 M⁻¹ s⁻¹
same,Kd,[7],6.5 µM
same,koff,[8],0.52 s⁻¹
same,kon,[8],42800 M⁻¹ s⁻¹
same,Kd,[9],7.8 µM
same,Kd,[10],11 µM
same,ka2,[11],5.2e-06 RU s-1
same,kd2,[11],0.006 s⁻¹
same,Kd,[12],1300 nM
same,Kd,[13],30 to 63 nM
same,ka2,[14],1.8e-06 RU s-1
same,kd2,[14],0.0017 s⁻¹
same,koff,[15],0.038 s⁻¹
same,kon,[15],5800 M⁻¹ s⁻¹
same,ka2,[16],7.1e-06 RU s-1
same,kd2,[16],0.00099 s⁻¹
same,Kd,[17],10 µM
same,koff,[18],0.33 s⁻¹
same,kon,[18],32700 M⁻¹ s⁻¹
"HUI77, murine IgM anti-denatured-collagen monoclonal antibody",EC50 (read off the curve),[19],100 ng/mL
same,inhibition of human endothelial cell adhesion to denatured collagen type-I,[20],40%
same,inhibition of human endothelial cell migration on denatured collagen-I,[20],80%
same,"fold tighter binding, denatured over native form",[21],10 fold
same,"fold tighter binding, denatured over native form",[22],7 fold
same,"fold tighter binding, denatured over native form",[23],8 fold
same,"fold apparent reactivity, denatured over native collagen type-I",[24],> 10 fold
same,"fold affinity, denatured over native collagen type-IV",[25],10 fold
